Assay results taken from US20100041074A1 (published 2010).
Values joined by “and” are separate entries in the source; they are usually repeats but may differ in a detail not shown here. Identical values can stand only once.

Molecular target: GST fused GRP78 protein (GST-GRP78) purified from E. coli (UniProt P11021 19-654)
Experiment: ELISA

B1: toxin-labeled GD17 single-chain antibody (GD17scFv-PE40) (scFv)
scFv: MDHHHHHHHHHHKLQVQLQQSGAELARPGASVKLSCKASGYTFTSYWMHWVKQRPGQGLEWIGAIYPGDGDTRYTQKFKGKATLTADKSSSTAYMQLSSLASEDSAVYYCASGITAVADYWGQGTTLTVSSGGGGSGGGGSGGGGSDVVMTQTPLSLPVSLGDQASISCRSSQSLVHSNGNTYLHWYLQKPGQSPKLLIYKVSNRFSGVPDRFSGSGSGTDFTLKISRVEAEDLGVYFCSQSTHVPLTFGAGTKLELKEFGGAPEFPKPSTPPGSSGLEGGSLAALTAHQACHLPLETFTRHRQPRGWEQLEQCGYPVQRLVALYLAARLSWNQVDQVIRNALASPGSGGDLGEAIREQPEQARLALTLAAAESERFVRQGTGNDEAGAANADVVSLTCPVAAGECAGPADSGDALLERNYPTGAEFLGDGGDVSFSTRGTQNWTVERLLQAHRQLEERGYVFVGYHGTFLEAAQSIVFGGVRARSQDLDAIWRGFYIAGDPALAYGYAQDQEPDARGRIRNGALLRVYVPRSSLPGFYRTSLTLAAPEAAGEVERLIGHPLPLRLDAITGPEEEGGRLETILGWPLAERTVVIPSAIPTDPRNVGGDLDPSSIPDKEQAISALPDYASQPGKPPDYKDDDDKKDEL
- EC50: 1.41 nM and 1.25 nM
